The text below walks through data of the nanobody polyreactivity screen of Harvey et al. (2022).

The nature of the series: yeast display, Sf9 membrane polyspecificity reagent, FACS + sequencing; frameworks hold sequencing errors. The method in brief:
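Nanobodies came from a synthetic yeast display library in Saccharomyces cerevisiae BJ5465, induced with galactose for 36–48 hours and stained for 1 hour at 4 °C with 10% biotinylated, detergent-solubilized Sf9 membrane reagent. Cells were enriched on streptavidin microbeads and then FACS-sorted, with low and high (top ~1%) gates set on anti-HA fluorescence for expression and streptavidin fluorescence for reagent binding. Each polyreactivity label reflects the gate a clone came from. Genes were amplified by colony PCR, sequenced by MiSeq 2 × 250 and filtered by CDR length.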
With “QVQLVESGGGLVQAGGSLRLSCAASGIIFKYYAMGWYRQAPGKERELVAAISRSSGSTYYADSVKGRFTISRDNAKKTVYLQMNSLKPEDTAVYYCAASGWPQKYDYWGQGTQVTVSS”, the “polyreactivity (PSR sort gate)” value is on record as “high polyreactivity”. Next, “QVQLVESGGGLVQAGGSLRLSCAASGYIFYGYDMGWYRQAQGKERDLVAGITYSGGGGTHYADSVKGRFTISRDNAKNTVYLQMNSLKPEDTAVYYCAKADPQLNRNYYSYGMDYWGQGTQVTVSS”: “low polyreactivity”. The same measure for “QVQLVESGGGLVQAGGSLRLSCAASGRISVNYAMGWYRQAPGKERELVAGITSRGGSTYYADSVKGRFTISRDNAKNTVYLQMNSLKPEDTAVYYCAARWGGLWYYYWGQGTQVTVSS”: “high polyreactivity”; for “QVQLVESGGGLVQAGGSLRISCAASGSIFPFYAMGWYRQAPGKERELVAAISDRGGSTYYADSVKGRFTISRDNAKNTVYLQMNSLKPEDTAVYYCAKGGEVSQGYTDEYDYWGQGTQVTVSS”: “low polyreactivity”; for “QVQLVESGGGLVQAGGSLRLSCAASGFTSAYNAMGWYRQAPGKERELVATISFRGSSTYYADSVKGRFTISRDNAKNTVYLQMNSQKPEDTAVYYCAADPYDARAVSEPVFFGHYDFWGQGTQVTVSS”: “low polyreactivity”.

Regarding “QVQLVESGGGLVQAGGSLRLSCAASGFIFYRYAMGWYRQAPGKERELVAAISSSGGSTYYADSVKGRFTISRDNAKNTVYLQMNSLKPEDTAVYYCAAEPSGKRSKFYYLGQGTQVTVSS”, the “polyreactivity (PSR sort gate)” value is “high polyreactivity”. The same measure for “QVQLVESGGGLVQAGGSLRLSFAASGLIIFSYAMGWYRHAPGKEREIVASIRSSGGSTNYADSVKGRFTISRDNAKNTVYLQMYSLKPEDTAVYYCATRSKTSGRSYIPFNYWGQGTQVTVSS”: “high polyreactivity”; for “QVQLVESGGGLVQAGGSLRLSCAASGSTFESNAMGWYRQAPGKERELVAAISRGRTNYADSVKGRFTISRDNAKNTVYLQMNSLKPEDTAVYYCAADGLSNVRQMDYWGQGTQVTVSS”: “low polyreactivity”; for “QVQLVESGGGLVQAGGSLRLSCAASGRIFRINGMGWYRQAPGKEREFVAAITSGGGTYYADTVKGRFTISRDNAKNTVYLQMNSLKPEDTAVYYCAAPSYRTRYYYWGQGTQVTVSS”: “high polyreactivity”. The same measure for “QVQLVESGGGLVQAGGSLRLSWAASGSTFYAYAMGCYRQSPGNERELVATISWSGGSTYADSVKGRFTISRDNAKYTVYLQMNSMTPEDTAVYYCNGSGAFYPTQVHPGYTLWSYDDWGQGTQVTVSS”: “low polyreactivity”; for “QVQLEESGGGLVQAGGSLRLSCAASGRTFRTYTMGWYRQAPGTERELVAANSKRGSSTYYADSVKGRFTISRDNAKNTVYLQMNSLKPEDTAVYYCAARSWLSNSPYGYWGQGTQVTVSS”: “high polyreactivity”. Take “QVQLVESGGGLVQAGRSLRLSCAASGRTLHQYDMGWFRQAPGKEREFVAVIDSSDGSTYYADSVKGRFTISRDNVKNTVYLQMNSLKPEDSAVYYCLGGYYYLQYDYWGQGTQVTVSS”: the “polyreactivity (PSR sort gate)” value is “low polyreactivity”.

As for “QVQLQESGCGLVQEGGSLRPSCAASGSISEGVPMGWSRQAPGEERELVATTVMGATTNYADSVKGRFTISRGNANNTVYLQMISLKPDETAVYYCAAPLRYDKGFSFWGQGTQVTVSS”, the “polyreactivity (PSR sort gate)” value is “low polyreactivity”. Next, “QVQLVESGGGLVQAGGSLRLSCAASGFTFVGYAMGWYRQAPGKERELVASINYSGGSTYYADSVKGRFTISRDNAKNTVYVQMNSLNPEDTAVYYCAAGGYPWYLRRGGFACYDYWGQGTQVTVSS”: “low polyreactivity”; “QVQLVESGGGLVQAGGSLRLSCAASGFIFVFYAMGWYIQAPGKERELVAAITWSGGGTYYADSVKGRFTISRDNAKNTVYLQMNSLKPEDTAVYYCNTDASPYLFDYWGQGTQVTVSS”: “low polyreactivity”. The same measure for “QVQLVESGGGLVQAGGSLRLSCAASGSTFDPNAMGWYRQAPGKETELVAAIDSGGSTYYADSVKGRFTISRDNAKNTVYLQMNSLKPEDTAVYYCATKQPTWVPRVIISYTKFDYWGQGTQVTVSS”: “low polyreactivity”; for “QVQLVESGGGLVQAGGSLRLSCAASGSTFGWYAMGWYRQAPGKESELVAAIRTSGGDSTYYADSVKGRFTISRDNAKNTVYLQMNSLKPEDTAVYYCAKTVWWYYRYPFDYWGQGTQGTVSS”: “low polyreactivity”; for “QVQLVESGGGLVQAGGSLRLSCAASGSIFQYNVKGWYRQEPGKEREFVADISSSGGSTYYADSVKGRFTISRDNAKNTVYLQMNSLKPEDTAVYYCNADPGYVFYRDEYWGQGTQVTVSS”: “low polyreactivity”. On to “QVQLVESGGGLVQAGGSLRLSCAASGRTFRSYDMGWYRQAPGKERELVAAISEDGGYTYYADSVKGRFTISRDNAKNSVYLQMNSVKPEDTAVYYCAKDRPGPLRWWFLYGYWGQGTQVTVSS”, for which the “polyreactivity (PSR sort gate)” value is on record as “low polyreactivity”. Next, “QVQLVESGGGLVQAGGSLRLSCAASGIIFYRNTMGWYRQAPGKERELVAAIRRGGNTYYADSVKGRFTISRDNAKNTVYLQMNSLKPEDTAVYYCAASAGPRASYYYWGQGTQVTVSS”: “high polyreactivity”; “QVQLVESGGGLVQAGGSLRLSCAASGSIFTENAMGWYRQAPGKERELVATITITGSTNYADSVKGRFTISRDNAKNTVYLQMNSLKPEDTAVYYCNADLYIAFSASAYDYWGQGTQVTVSS”: “low polyreactivity”. The same measure for “QVQLVESGGGLVQAGGSLRLSCAASGRIFTYNAMVWYRQAPGKERELVAVITSGGSTYYADSVKGRFTISRDNAKNTVYLQMNSLKPEDTAVYYCAARVWGSSQYYYWGQGTQVTVSS”: “low polyreactivity”. The same measure for “QVQLEESGGGLVQAGGSLRLSCAASGFTFVPYAMGWYRQAPGKERELVARITWSGGSTYYADSVKGRFTISRDNAKNTVYLQMNSLKPEDTAVYYCNLDTRYPGYWRVFAKNNYWGQGTQVTVSS”: “high polyreactivity”. Regarding “QVQLVESGGGLVQAGGSLRLSCAASGRTFGGYAMGWYRQAPGKERELVADITSSGSTTYYADSVKGRFTISRDNSKNNVYLERYSLKPEDTAVYYCNAEGYSPVLYDYWGQGTQVTVSS”, the “polyreactivity (PSR sort gate)” value was “low polyreactivity”.

With “QVQLVESGGGLVQAGGSLRLSCAASGFTFPENAMGWYRQAPGKERELVAAISYRGASTFYADSVKGRFTISRDNAKNTVYLQLISLKPEDTAVYYCATDPRIRYQGNPYDYWGQGTQVTVSS”, the “polyreactivity (PSR sort gate)” value is reported as “high polyreactivity”. With “QVQLEESGGGLVQAGGSLRLSCAASGSTFRYYAMGWYRQAHGKERELVAGISSSGGSTYYADSVKGRFTISRDNAKNTVYLQMNSLKPEDTAVYYCNAARGSSRSWAVFADYDYWGQGTQVTVSS”, the “polyreactivity (PSR sort gate)” value is given as “high polyreactivity”. Next, “QVQLVESGGGLVQAGGSLRLSCAASGLSFYPNGMGWYREAPGKERELVAAITYSDGSTYYADSVKGRFSISRDNAKNTVYLQMNSLKPEDTAVYYGNRVTRWTYNYWGQGTQVTVSS”: “high polyreactivity”; “QVQLVESGGGLVQAGGSLRLSCAASGSTFVPYAIGWYRQAPGKERELVASITYSGGSTSYADSVKGRFTISRDNAKNTVYLQMNSLKPEDTAVYYCAAVPWVVYSGYDYWGQGTQVTVSS”: “low polyreactivity”. As for “QVQLVESGGGLVQAGGSLRVSCAASGSTFSQYAMGLYRQAPGKEREFVAVITLSVVSTSYADSVKGRFTFSRDNAKNTVYLQMNSQKPEDTAVYYCNKDSGVRGPGYGYWGQGTQVTVSS”, the “polyreactivity (PSR sort gate)” value is on record as “low polyreactivity”. Consider “QVQLVESGGGLVQAGGSLRLSCAASGSTFISNTIGWYRQAPGKERELVAAISSGGDTSYADSVKGRFTISRDNAKNTVYLQMNILKPEDTAVYYCNVDTSATSYSSEYDYWGQGTQVTVSS”, for which the “polyreactivity (PSR sort gate)” value is listed as “low polyreactivity”.
